Assay results taken from the DeepSol protein solubility set.

Experiment: soluble on expression in E. coli; label from the status in PepcDB or PDB records

Question: Which “soluble on expression in E. coli” value does the source give for “MTTAGYYAAVDWGTSSFRLWIIGEDGAVLAERRSAEGMTTAAKTGFHTILDGHLAAVSAPAHLPIIICGMAGARQGWKEAGYIETPAALAEIAGRATAIPDVDRDIRILPGLAQRDRRHPDVMRGEETQLLGAAAHLGAGSHLVCMPGTHSKWVRLADDRVEGFSTFMTGELFDTIARHTILSHAVAEADTFAAGSAAFTDAVSRTRENPALATNLLFSVRAGQLLHGTAAADARAQLSGTLIGLEIAGALAGSGSVDGVCLVGSGGLGTLYRTALESQGLNVRAVDADEAVRAGLSAAARAIWPL” here?
Answer: Its value is “not soluble”.

Question: With “MTTAIGKKTTKLEPFKMERGVKYRDAAKTSVIQVRNIDPDQELLKKPEWMKIKLPTNSAKIDSIKYGMRRHGLHSVCEEASCPNLHECFNHGTATFMIMGAICTRRCPFCDVAHGKPLPLDPYEPRKVAETVQDMKLKYVVITSVDRDDLADRGAAHFAATVREIKALNPECKVEILVPDFRGRVEQAVAILKQNPPDVFNHNLENVPRLYREIRPGADYKWSLELLKIFKQEFPNIPTKSGLMVGLGETNEEILAVMQDLRDHGVTMLTVGQYLQPSRHHLRVERYVPPAEFEMFRSEAEKMGFEHAACGPFVRSSYHADLQAKGELVK” as the sequence, how does the “soluble on expression in E. coli” value read?
Answer: Its value is “not soluble”.

Question: With “MTTDQIAAFCLQLPGAREDLKWGSNRVFSVAGNKMFAILDFVDKDGGLAFKVGSELFLGYVDRPGIRPAPYLARAHWIVMARPYPMKAAELREALVRSHQLVVARLPKRQRLGLVLDA” as the sequence, how does the “soluble on expression in E. coli” value read?
Answer: Its value is “not soluble”.

Question: For “MTTETQADRTQQAVGRIIGSIGVVTTQTTGRHQGILTSWVSQASFTPPGIMLAIPGEFDAYGLAGQNKAFVLNLLQEGRSVRRHFDHQPLPKDGDNPFSRLEHYSTQNGCLILAEALAYLECLVQSWSNIGDHVLVYATVQAGQVLQPNGITLEHHHHHH”, which “soluble on expression in E. coli” value is on record?
Answer: The value was “soluble”.

Question: Which “soluble on expression in E. coli” value does the source give for “MTTHEKVILVGVETEKNYQTFSASMEELANLTETANGEVVFVLTQKRPQVDRQTVIGKGKLEELIQLTDAYEADLVIFNHELTPRQNQLLSEALAVRVIDRVQLILDIFALRARSKEGKLQVELAQLDYLLPRLAGQGKQLSRLGGGIGTRGPGETKLESDRRHIRNKILGIRRELKEVTAHRERSRQKRQNSELFQIGLIGYTNAGKSTILNMLTTAGTYSEDQLFATLDPLTKKWQLPQGMEVTLTDTVGFIQDLPTQLIEAFQSTLEESRTMDLLLHVVDASAPDRLQHERTVQTLMKELALENIPCLTVYNKRDQVDSKEFVPTLFPNVLISTKISEDKERLVQAIRAQMMELLEPYQLEISPTDGQLLSELRRMTLMISEEYAENENRYIVKGFAKKKSKWLAESEKEAAALEHHHHHH” here?
Answer: The value was “not soluble”.

Question: With “MTTHHIKKSYSPNTKLSDLICENYDLLLVITRFGISLGFGEKSIREVCEDNKVNTNTLMAVINALINRPEHPSETVLSDLSAPSLINYLRKSHNYFLEFRLPLLRQDLLAALSNCPSEVVFVIRQFYDEYVEEVRKHMSYEEKTVFPYVEKLLGGKLDKRSHYRIDIFSKRHDQIELKISELKNLLIKYYPTSSGYELNSVLHDIFSSEDDLSAHNFVEDHLFVPLIRKIEKENGL” as the sequence, how does the “soluble on expression in E. coli” value read?
Answer: Its value is “not soluble”.

Question: For “MTTIPVTSIAAEPAVSCSTCAACCCQLEVMLITDTGVPERFIDTDDWGGEVMRRLDDGWCAALDRDSMRCSIYELRPLICREFELGEADCLSERRGIATAYRLEHHHHHH”, which “soluble on expression in E. coli” value is on record?
Answer: The value was “not soluble”.

Question: For “MTTLLIVPGFGGSGPLHWQSWIAQKYTSSLWVNDLPLLEPKIHIWADAISRAMDNIEGKILILAHSFGCLASSLAIARHPQRVVAAILVAPASPESFSENGHILPEHDDTPTIRNLLPKQTLGICGLVIASENDPWMPFNQAASLAKSFGLPTINLGLSGHINVDSGHGQWPLIDVLVGNFLFQNENVPPIPSIKTAQDKTTPHLFPNGILEHHHHHH”, which “soluble on expression in E. coli” value is on record?
Answer: The value was “not soluble”.

Question: With “MTTLSMENFAQLFEESLTLHDMRVGEVITAEVVAVDSNFVTVNAGLKSESLIPAEEFKNDQGVVEVAIGDFVTVAIDALENGFGETKLSREKAKRMAAWVELEEALEAGTILSGMISGKVKGGLTVMVNGIRAFLPGSLVDVRPVKDTTPYENKQIEFKVIKLDRKRNNVVVSRRSVLEETLGEERKALLETLKEGAVIKGIVKNITDYGAFVDLGGIDGLLHITDLAWRRVKHPSEVLAVGDEVEAKVLKFDQEKNRVSLGLKQLGEDPWVGLSRRYPSGTRLFGKVTNLTDYGAFVEIEQGIEGLVHVSEMDWTNKNVHPSKVVQVGDEVEVMILEIDEDRRRISLGMKQCLANPWNEFADNFHKGDKLKGAIKSITDFGVFVGLPGGIDGLVHLSDLSWNEAGEEAVRKFKKGDEVEAVVLSIDVEKERISLGIKQLEGDPFNNFVAMNDKGALVKGTVKSVDAKGAVIALDADVEGYLRASELSRDRVEDARSVLKDGDAVEAVIVAVDRKSRNISLSIKAKDAQEDNAALKSLAVDSASAGTTNLGALLKAKLSGSNE” as the sequence, how does the “soluble on expression in E. coli” value read?
Answer: The value was “soluble”.

Question: For “MTTMTPDAAGLAALEARLKQDLAWLELPAKSWVPRRVVDGKSVVDVVIVGAGMAGLVASAMLRRLGVDNQLVLDRARAGEEGPWVTFARMRTLRSPKELTGPAMGMPALTFRAFYEAQYGRQAWQALDRAPRTMWMDYLIWYRKVLDLPVRNGVSVERIHARTDELFALDISEGGTSRQILARHVVLATGRDGLGGAYVPSLCDGIDRRFWAHSSAPIDFERLRGRRVAVVGAGASAMDNAAMALEAGAARLDLFIRRADIPRVNKFTGIGSQGVVHGFAGLSDDWKWRFLDHTLKAQTPPPRQSVLRVSAYPQAHFHLASPIDDLAVAGDHLTVTTPKGRYATDFIIFGTGFKVDLALRDELAEFAPHIRFWCDRFPAPDGMDNAELENSPDLGDSFQFLEKEPGACPMLARLHCFNYPATLSHGKLSGDIPAISEGADRLARGIVRRLFVEDREIHFANLKAFATPELAGDEWQDADVTHQPAE”, which “soluble on expression in E. coli” value is on record?
Answer: The value was “soluble”.

Question: For “MTTPTFDINAAIQALREGKDLTGKDGILTPLIKQLTEAALAAELDGHLASTEGANRKNGKTTKTVKSPLGNFELNTPRDRAGTFEPQLVKKHQTQLTDEMERKIIGLFSLGSSYQDIRAHIEDMYGMSVSNGTVNAITDKLLPELQAWRERELEPLYPVIWLDAIHYKIKENGRFISKAVYTILALNVEGKKELLGLYLSDNEGAHHWLSVLTDLYNRGVKDILIACVDGLKGFPEAIATIYPQTEVQLCVIHQIRNSMKYVASKHQKAFMADLKCVYKAATLNAAEMALDELETKWGDKYPVVIKSWRNKWALLSVYFKYPDYVRTAIYTTNAVEAVHRQFRKLTKTKGGFANENSLLKLLYAGILKASERWTHPIQNWNLTLSQLSIHFEGRLENHIDL”, which “soluble on expression in E. coli” value is on record?
Answer: The value was “not soluble”.

Question: Which “soluble on expression in E. coli” value does the source give for “MTTPYCFNLAMRKSSRLITQFYEDRLSAVGLKSGQFSILKAVSFLKQTSNKELQGILVLDQTTLSRNLKPLFRDGYLKLSPDSNDARVKLISLTTQGQALYEKADPLWQKAQDDLEKKLGSEEVKNILTLADSFVKALAR” here?
Answer: The value was “not soluble”.

Question: For “MTTRDLFADHAPADDRRIALGEAAVVLRGFALAEATALLAAIDDIARQAPFRHMVTPGGFEMSVALTNCGALGWTSDRRGYRYAARDPQTGQPWPPLPDCFLRLARDAAAAAGFPGFTPDACLINRYVPGARLSLHQDKDEQDYGAPIVSVSLGMPAMFLWGGHRRTDKTLRVPLFHGDVVVWGGPDRLRYHGVLPLKEAAHPLLGAQRINLTLRRAGLEHHHHHH”, which “soluble on expression in E. coli” value is on record?
Answer: The value was “soluble”.

Question: Which “soluble on expression in E. coli” value does the source give for “MTVDNFRLQVLANHCTAAAEAMGYTLMRTAYSTFVKETEDFSAQLMTPAGKTFASPKTFGATWYTGLDYGRVIAMFDDYREGDIYLTNDPYSGFVATHTPDMHVWKPVFRDGRLVCFVGSHIHNTDMGGAVPASLSRTLTEVHQEGLRIPPMLLARDGVIDEKVLRIMEVNVRMPEQNRGDLNAQIAALNVGERKVHEIIDRFGVDEFMQGAEAILDYAEQQTRALIREIPDGEYRFAEYADEDTVGGYPCRIQITLRVRGDELELDFTGSDPQVASSLNVPTGGDGHHSVITVGLIYVMHTLAPRNVLNAGSVRPCRAVLPEGTVVNPQAPAAVGMRSLMAAVIQACTFGVFSRAMPDRLPACPAGGSTLLNVKTATREGRQVLSSIGPCGGGAGGGPEHDGVEGCGANNAFLKNTPVEINEAEVPIEIIRYGLVPDTGGAGRQRGGNAATMEFRLLAPNGVVTARNRNRSELAAWGVMGGKAGANSRFIRNPDSDAPEELRNSDLVNCAPGDVIRLQGPAGGGYGHPYERPIEQVVED” here?
Answer: Its value is “not soluble”.

Question: Which “soluble on expression in E. coli” value does the source give for “MTVGGMQPVSIMGKHLNNFERLSILEDYLSGSDSKVAIEQKYGLSHGLIRSWLSKFGLEDKVHPVPMKVSQSPQSELPLNEKEELEQLRKENRVLKSRLKREELGHQAYKLLVELAEETYGIQIRKNSEAK” here?
Answer: The value was “not soluble”.

Question: Which “soluble on expression in E. coli” value does the source give for “MTVGMSGFTRAGEAKAVPLALAERAKTNPMKITLMTGASLGNDLDKTMVEAGMLARRMPFQSDPALRKAINDGRVMFIDQHLSETVEQLRGGQIHGVDIAIVEAVAITAEGGIVPTTSVGNSASFAILADKVIVEINLSQPEVLEGLHDIFIPAKRPTRMPIPVVATDSRVGLPFIPVPPEKIAAIVLSDKSDSFSTVLPPDDETKAIAGHLTEFLLNEVRHGRMTHELQPLQAGIGTIANAVMHGFIDTPFHDLKMYSEVLQDSTFELFDAGKLTFASGSSITLSSAMNEQVMPRLSEYKSRLILRPQEVSNHPEVIRRLGIIGINTALEFDIYGNVNSTHVGGTHMMNGIGGSGDFARNAYMSIFVTKSIAKGGAISSVVPMVSHVDHTEHDVDILVTETGLADLRGLAPRERAAVIIANCVHPSYRDALTDYYQRAAARGGHTPHLIEEALSWHNALRERGTMLPQRLEHHHHHH” here?
Answer: Its value is “not soluble”.

Question: With “MTVQQKIASGRSSGRTVSQERLNQLSEQTRRAIAQLEPVTLDWVAPVATDMDVAVIGGGQSGVAIAFGLRRAGIRRVQVFDAATPETAGVWNTIARMHTLRAGKGFTGLEQGIPELTFEHWYVALHGDAAFAAMAEIPRTVWLDYLNWYRETAGIDVRWQHRLISIDPRSDAENAPLNLRFELQDKGVIDLSTQTIVLATGLDGLGEPYIPSVLSHTLPPDRLVHTNDLINFSSLRGLSVGVVGAAASAFDAAAVALEHGAASVHQFVRHGDLVEANDQAAARPSADKLFFPEFDDAMRWRLILERRRRSSAPDAAIARACQHPNHYLHFNVAAEQIVALGDDIVARTTTGDIMLDTVIAATGYRQNVYARPELTAAAPHILLWQDRVAAAEGESGWSSHPYLGKGFELQEIEPGSAPWLKRIHVYTFAAIISHGIHAGDIGSAAIALPRLIAAVARSLFIHARADYERLASLGPSIAVDRVAPSPVSGPWEAAPLEHHHHHH” as the sequence, how does the “soluble on expression in E. coli” value read?
Answer: The value was “soluble”.

Question: Which “soluble on expression in E. coli” value does the source give for “MTVQTAIFDLIKQAKTIIIHRHQRPDPDAIGSQLGLAAIIKASFPAKRVLTPGKQYHGFDWLGQMDEVTEADYQDALVLILDTANQPRIDGELWNQGKTIVKIDHHPNDDAFGDPQWVDVDASSTSEMIYNWYAPLAAELTLTANAARLLYAGIVGDTGRFLYSATKPSTMRAAAALMEAGADAEAVNRIEDTITLPVARLSAYVYEHLTQLDSGAAYVILTNAILDSFAIGDASTAGVVPLPGRIDTVKCWAIFVQQKEGDFRIRLRSKGPSINGVAKNHDGGGHALASGAKAKDQQEIETVVRELDQVASQYEKEVLEHHHHHH” here?
Answer: Its value is “not soluble”.
